Experimental data from patent US20200399314A1 (MEDIKINE, published 2020).
Bridge positions count the residues as written; N and C are the ends. Ends that are not written are not given here.

B1: SEQ ID NO 11 (peptide)
peptide: FIPWDEYFKQVL
B2: SEQ ID NO 135 (peptide)
peptide: RQFCLVSPGYEDCWFV
B3: SEQ ID NO 136 (peptide)
peptide: TRMCFDDPGWHSCPVV
B4: SEQ ID NO 137 (peptide)
peptide: TRWCSLHPGVGECVTL
B5: SEQ ID NO 138 (peptide)
peptide: TTVCDYHPGSRYCINE
B6: SEQ ID NO 139 (peptide)
peptide: YASCTYLPGHRGCTLV
B7: SEQ ID NO 140 (peptide)
peptide: WLPCDDYPGHGYCYSR
modifications: disulfide 4-13 (inferred)
B8: SEQ ID NO 144 (peptide)
peptide: SACQLKWDEGWTCLF
B9: SEQ ID NO 145 (peptide)
peptide: NHCTLSKTYPWVCVF
modifications: disulfide 3-13 (inferred)
B10: SEQ ID NO 146 (peptide)
peptide: QRCNRSLLDALICQA
B11: SEQ ID NO 147 (peptide)
peptide: RGCMLRLQPELACVF
B12: SEQ ID NO 12 (peptide)
peptide: FVPWPEYFLQIM
B13: SEQ ID NO 148 (peptide)
peptide: GGCSLVWADSWVCIF
B14: SEQ ID NO 152 (peptide)
peptide: SRCSLVWTDTWVCVF
B15: SEQ ID NO 153 (peptide)
peptide: SRCTLVFDDSWVCVF
B16: SEQ ID NO 154 (peptide)
peptide: RGCSLVWSGSWECIF
B17: SEQ ID NO 159 (peptide)
peptide: RGCSLVWAGSWECIF
B18: SEQ ID NO 155 (peptide)
peptide: QACQLVWLDSWVCIF
B19: SEQ ID NO 156 (peptide)
peptide: VGCSLVWTDRWECIF
modifications: disulfide 3-13 (inferred)
B20: SEQ ID NO 157 (peptide)
peptide: SGCSLQWADGWVCIF
modifications: disulfide 3-13 (inferred)
B21: SEQ ID NO 158 (peptide)
peptide: ARCSLVWDEAWVCIF
B22: SEQ ID NO 160 (peptide)
peptide: SRCSLVWAENWVCIF
B23: SEQ ID NO 13 (peptide)
peptide: FIPWEEYFSQLL
B24: SEQ ID NO 14 (peptide)
peptide: FIPWPEYFSQLL
B25: SEQ ID NO 161 (peptide)
peptide: RRCTLVFLDSWECIF
modifications: disulfide 3-13 (inferred)
B26: SEQ ID NO 162 (peptide)
peptide: RGCTLAWEDSWVCIF
modifications: disulfide 3-13 (inferred)
B27: SEQ ID NO 163 (peptide)
peptide: RGCSLRFAEAWECIF
B28: SEQ ID NO 164 (peptide)
peptide: ASCSLVWQDSWVCIF
B29: SEQ ID NO 165 (peptide)
peptide: SRCSLVWADSWVCIF
B30: SEQ ID NO 166 (peptide)
peptide: GRCHLVWSDRWECIF
B31: SEQ ID NO 169 (peptide)
peptide: GCTLKWESPNWTCY
B32: SEQ ID NO 170 (peptide)
peptide: SCTVRWDGDWWVCE
B33: SEQ ID NO 171 (peptide)
peptide: GCSLMWQDGWWVCI
B34: SEQ ID NO 172 (peptide)
peptide: GCTLSWNQGWWHCV
B35: SEQ ID NO 173 (peptide)
peptide: GCMLTRGKFWWECI
B36: SEQ ID NO 174 (peptide)
peptide: GCVLQFSGVWWECV
modifications: disulfide 2-13 (inferred)
B37: SEQ ID NO 178 (peptide)
peptide: QRCQLSWSGGELGCMF
modifications: disulfide 3-14 (inferred)
B38: SEQ ID NO 179 (peptide)
peptide: AGCMLLKPGLYWECIF
B39: SEQ ID NO 180 (peptide)
peptide: ARCSLHHTGSRYECIF
B40: SEQ ID NO 181 (peptide)
peptide: ATCMLRLLGDGWGCVF
B41: SEQ ID NO 182 (peptide)
peptide: GPCRLSNPGTGWECIF
modifications: disulfide 3-14 (inferred)
B42: SEQ ID NO 183 (peptide)
peptide: KGCTLQNPGSGWVCLF
B43: SEQ ID NO 184 (peptide)
peptide: LACILSKPGEHWECLF
B44: SEQ ID NO 185 (peptide)
peptide: NGCTLSFSGMSWTCVY
modifications: disulfide 3-14 (inferred)
B45: SEQ ID NO 15 (peptide)
peptide: FVPWDEYFLQIL
B46: SEQ ID NO 186 (peptide)
peptide: NSCILSNPGLGWQCVF
B47: SEQ ID NO 187 (peptide)
peptide: NTCKLFRSGNIWQCIF
B48: SEQ ID NO 188 (peptide)
peptide: PSCRLWNPGFGWECIF
B49: SEQ ID NO 189 (peptide)
peptide: QSCTLQRLGHLYQCWF
B50: SEQ ID NO 190 (peptide)
peptide: SACTPNWTGRWWECVF
modifications: disulfide 3-14 (inferred)
B51: SEQ ID NO 191 (peptide)
peptide: SKCHLIVSGKFHECVF
B52: SEQ ID NO 192 (peptide)
peptide: SSCTLFNPGTGWTCVF
B53: SEQ ID NO 193 (peptide)
peptide: STCRMGNPGGVWGCYF
modifications: disulfide 3-14 (inferred)
B54: SEQ ID NO 194 (peptide)
peptide: THCLVQWPGPVVACRS
B55: SEQ ID NO 195 (peptide)
peptide: TRCRLLKLGSLWECFG
B56: SEQ ID NO 19 (peptide)
peptide: FVLCGLQGCRGS
B57: SEQ ID NO 198 (peptide)
peptide: ACWRSWRYPTRTFCS
B58: SEQ ID NO 199 (peptide)
peptide: KCRLRQMSRGGWECL
B59: SEQ ID NO 200 (peptide)
peptide: NCRVRHLPYPFWSCL
B60: SEQ ID NO 201 (peptide)
peptide: RCRLQKAGGNTWECI
B61: SEQ ID NO 202 (peptide)
peptide: RCTLRFDAQTGWECN
B62: SEQ ID NO 203 (peptide)
peptide: TCRLKRSGPNSWECI
B63: SEQ ID NO 204 (peptide)
peptide: TCTVHRIGLAEWECV
modifications: disulfide 2-14 (inferred)
B64: SEQ ID NO 208 (peptide)
peptide: VKCKLVNPGSGWACHF
modifications: disulfide 3-14 (inferred)
B65: SEQ ID NO 209 (peptide)
peptide: VRCFMSEPGRVSYCTA
B66: SEQ ID NO 210 (peptide)
peptide: VRCRLARPGLTWECLS
B67: SEQ ID NO 20 (peptide)
peptide: KVICGWDGCR
B68: SEQ ID NO 211 (peptide)
peptide: VRCRVLYPGQMAVCVS
B69: SEQ ID NO 212 (peptide)
peptide: VTCYRAVPGVEAYCFS

molecular target: T1, human IL-2Rα subunit (human, UniProt P01589 22-213, limits assumed)
T1 construct: also called CD25
T1 sequence (looked up): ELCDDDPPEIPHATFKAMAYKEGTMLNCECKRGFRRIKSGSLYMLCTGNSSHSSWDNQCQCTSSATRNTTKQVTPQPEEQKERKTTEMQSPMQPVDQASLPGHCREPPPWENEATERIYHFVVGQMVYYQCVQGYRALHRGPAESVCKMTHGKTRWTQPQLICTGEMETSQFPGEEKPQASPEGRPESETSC

IC50, < 100 µM:
B1, B2, B3, B4, B5, B6, B7, B8, B9, B10, B11, B12, B13, B14, B15, B16, B17, B18, B19, B20, B21, B22, B23, B24, B25, B26, B27, B28, B29, B30, B31, B32, B33, B34, B35, B36, B37, B38, B39, B40, B41, B42, B43, B44, B45, B46, B47, B48, B49, B50, B51, B52, B53, B54, B55, B56, B57, B58, B59, B60, B61, B62, B63, B64, B65, B66, B67, B68, B69
